Molecular target: the molecule itself
Experiment: AUC; sedimentation velocity dilution series, 40,000 rpm, 20°C, Rayleigh optics; 5 mM sodium phosphate pH 6.0 with 50, 150 or 500 mM NaCl; Wide Distribution Analysis and fits in SedAnal; self-association of monomer to higher oligomers

B1: recombinant human galactocerebrosidase (hGALC) (enzyme, UniProt P54803 43-685, looked up)
chain: YVLDDSDGLGREFDGIGAVSGGGATSRLLVNYPEPYRSQILDYLFKPNFGASLHILKVEIGGDGQTTDGTEPSHMHYALDENYFRGYEWWLMKEAKKRNPNITLIGLPWSFPGWLGKGFDWPYVNLQLTAYYVVTWIVGAKRYHDLDIDYIGIWNERSYNANYIKILRKMLNYQGLQRVKIIASDNLWESISASMLLDAELFKVVDVIGAHYPGTHSAKDAKLTGKKLWSSEDFSTLNSDMGAGCWGRILNQNYINGYMTSTIAWNLVASYYEQLPYGRCGLMTAQEPWSGHYVVESPVWVSAHTTQFTQPGWYYLKTVGHLEKGGSYVALTDGLGNLTIIIETMSHKHSKCIRPFLPYFNVSQQFATFVLKGSFSEIPELQVWYTKLGKTSERFLFKQLDSLWLLDSDGSFTLSLHEDELFTLTTLTTGRKGSYPLPPKSQPFPSTYKDDFNVDYPFFSEAPNFADQTGVFEYFTNIEDPGEHHFTLRQVLNQRPITWAADASNTISIIGDYNWTNLTIKCDVYIETPDTGGVFIAGRVNKGGILIRSARGIFFWIFANGSYRVTGDLAGWIIYALGRVEVTAKKWYTLTLTIKGHFTSGMLNDKSLWTDIPVNFPKNGWAAIGTHSFEFAQFDNFLVEATR
modifications: heavily glycosylated; glycan structures not determined
notes: human galactocerebrosidase (GALC); The protein was recovered from the culture broth, and the computed 73 kDa protein moiety fits the precursor without its signal peptide (surmised); No tag is mentioned; also called human beta-galactocerebrosidase; galactocerebrosidase enzyme; source: virus filtration; ultrafiltration/diafiltration)
B1 was tested, and the “stoichiometry N” value was no less than 4.

Source: publication PMC6927645, “Self-association of human beta-galactocerebrosidase: Dependence on pH, salt, and surfactant” (PLoS ONE, 2019)
